Test results: patent US9708382B2, “Peptide library” (Daiichi Sankyo Company, Limited, priority 2011, dated 2017)

Tests used:
[1] = molecular target: T1, human EphA2 expressed on cell surface (Homo sapiens, UniProt P29317); assay: Flow cytometry binding to human EphA2-expressing HEK293T cells; assay type: cell-based; conditions: phage-displayed peptide, HEK293T cells transfected with human EphA2, human ErbB2-expressing cells as negative control
T1 construct: expressed in transfected cells; host or cells: HEK293T
T1 sequence (P29317 24-976): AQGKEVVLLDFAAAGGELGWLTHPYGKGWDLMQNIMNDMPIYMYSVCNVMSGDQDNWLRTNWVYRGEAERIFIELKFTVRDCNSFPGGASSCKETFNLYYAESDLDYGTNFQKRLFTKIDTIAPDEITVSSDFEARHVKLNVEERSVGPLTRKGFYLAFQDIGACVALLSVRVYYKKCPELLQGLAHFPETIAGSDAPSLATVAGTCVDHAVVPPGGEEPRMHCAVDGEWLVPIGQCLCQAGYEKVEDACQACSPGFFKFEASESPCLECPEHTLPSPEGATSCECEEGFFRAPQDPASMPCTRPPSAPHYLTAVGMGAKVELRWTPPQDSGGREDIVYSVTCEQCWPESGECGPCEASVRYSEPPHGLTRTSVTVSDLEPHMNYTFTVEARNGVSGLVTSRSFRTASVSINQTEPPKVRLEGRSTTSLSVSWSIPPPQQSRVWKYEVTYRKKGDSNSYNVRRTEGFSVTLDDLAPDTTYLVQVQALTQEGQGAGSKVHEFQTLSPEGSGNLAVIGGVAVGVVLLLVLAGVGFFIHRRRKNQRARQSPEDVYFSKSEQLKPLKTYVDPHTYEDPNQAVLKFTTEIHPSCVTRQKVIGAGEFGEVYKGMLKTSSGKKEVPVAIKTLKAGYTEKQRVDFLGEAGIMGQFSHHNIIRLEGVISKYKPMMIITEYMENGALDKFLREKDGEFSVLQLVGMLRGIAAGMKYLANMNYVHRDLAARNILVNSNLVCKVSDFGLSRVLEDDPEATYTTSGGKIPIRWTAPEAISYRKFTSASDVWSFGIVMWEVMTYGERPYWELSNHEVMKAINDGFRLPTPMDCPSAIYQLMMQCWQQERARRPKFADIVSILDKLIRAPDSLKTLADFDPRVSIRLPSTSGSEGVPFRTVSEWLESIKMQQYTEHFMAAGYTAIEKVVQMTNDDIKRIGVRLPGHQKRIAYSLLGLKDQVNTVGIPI
Description: Human embryonic kidney cells (HEK293T cells) were cultured at 37° C. in the presence of 5% CO2 using a Dulbecco's modified eagle's medium (hereinafter, referred to as “DMEM”; manufactured by GIBCO, Life Technologies Corp.) containing 10% fetal bovine serum (FBS) (hereinafter, this medium is referred to as “DMEM-10% FBS”). For use in transfection or flow cytometry, the cells were dissociated from the plate for culture using 0.05% trypsin-EDTA (GIBCO), and the cell suspension was then centrifuged to recover cells, which were then resuspended in DMEM-10% FBS and used.
The HEK293T cells were transfected with a pcDNA-DEST40 Gateway vector (manufactured by Invitrogen Corp.) having an insert of the human EphA2 gene or the human ErbB2 gene as a negative control using Lipofectamine 2000 (manufactured by Invitrogen Corp.) according to the instructions.
The transfected cells were recovered. The recovered cells were suspended in a FACS buffer (PBS containing 5% FBS) and applied to a nylon mesh. The solution was dispensed in an amount of 5×10^5 cells/well to 96 Well Cell Culture Cluster Round Bottom With Lid (manufactured by Costar, Corning Inc.) and centrifuged to remove a supernatant. The phage stock solution prepared in the paragraph 1) of Example 4 was added to the resulting cells at a concentration of 50 μL/well, and the mixture was left standing at 4° C. for 30 minutes. A FACS buffer was added thereto at a concentration of 150 μL/well, and the mixture was centrifuged to remove a supernatant. Again, a FACS buffer was added thereto at a concentration of 200 μL/well, and the mixture was centrifuged to remove a supernatant (hereinafter, cells were washed in the same way as this operation). An Anti-M13 antibody diluted 100-fold was added to the obtained cells at a concentration of 50 μL/well as a primary antibody, and the mixture was left standing at 4° C. for 30 minutes, followed by washing of the cells. Subsequently, FLUORESCEIN-CONJUGATED GOAT IGG FRACTION TO MOUSE IGG (manufactured by Cappel, MP Biomedicals, LLC) diluted 1000-fold was added thereto as a secondary antibody, and the mixture was left standing at 4° C. for 30 minutes, followed by washing of the cells. The obtained cells were suspended in 250 μL of a FACS buffer and subjected to Cytomics FC 500 Flow Cytometry System (manufactured by Beckman Coulter, Inc.). Fluorescently stained cells were detected.

[2] = molecular target: T2, Recombinant Mouse EphA2/Fc Chimera (mEphA2/Fc) (Mus musculus, UniProt Q03145); assay: Phage ELISA on solid-phase immobilized mEphA2/Fc; assay type: binding; conditions: phage-displayed peptide, compared with wild-type TACI_d2
T2 construct: purchased R&D systems, Inc
T2 sequence (Q03145 22-535, change not shown): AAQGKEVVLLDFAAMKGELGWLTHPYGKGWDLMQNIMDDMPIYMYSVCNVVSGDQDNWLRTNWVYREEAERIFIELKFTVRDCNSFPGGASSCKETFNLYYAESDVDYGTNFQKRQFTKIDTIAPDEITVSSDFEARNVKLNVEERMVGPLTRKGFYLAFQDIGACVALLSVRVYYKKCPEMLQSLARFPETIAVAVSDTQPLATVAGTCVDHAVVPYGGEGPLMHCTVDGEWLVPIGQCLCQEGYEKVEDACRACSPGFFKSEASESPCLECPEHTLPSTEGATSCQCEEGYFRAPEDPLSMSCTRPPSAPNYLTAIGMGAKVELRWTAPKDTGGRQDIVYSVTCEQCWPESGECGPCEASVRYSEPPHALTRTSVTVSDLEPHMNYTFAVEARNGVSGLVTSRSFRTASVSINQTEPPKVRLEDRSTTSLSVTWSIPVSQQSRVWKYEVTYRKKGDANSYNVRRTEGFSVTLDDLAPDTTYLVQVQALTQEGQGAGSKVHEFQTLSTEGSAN
Description: (§1) As to 3 clones (α-EphA2 #1 to #3: corresponding to SEQ ID NOs: 3 to 5, respectively, in the Sequence Listing and to Nos. 2 to 4, respectively in FIG. 4) selected from the Escherichia coli colonies after the final round of panning with hEphA2 as a target molecule, an Escherichia coli suspension with OD600 nm=0.3 was prepared using 2×YT/Amp/1% Glu. The Escherichia coli cells of each clone were shake-cultured at 37° C. and allowed to grow until OD600 nm=0.5. A sufficient amount of helper phages M13K07 was added thereto to infect the cells at 37° C. for 30 minutes. After addition of 2×YT/Amp/Kan/0.25 mM IPTG, the helper phage-infected Escherichia coli was shake-cultured overnight at 22° C. 20% PEG/2.5 M NaCl solution was added to the recovered culture supernatant to precipitate phages. The precipitated phages were suspended in PBS. This phage stock solution and a series of two-fold dilutions with PBS were used in phage ELISA. An Escherichia coli TG-1 strain having a pCANTAB 5E vector containing the wild-type TACI_d2 gene was also subjected to the same operation as above to prepare phages.
Each of hEphA2, BSA, Recombinant Human BAFF/BLyS/TNFSF13B (R&D systems, Inc.; a polypeptide consisting of amino acids from Ala at position 134 to Leu at position 285 in human BAFF (UniProtKB/Swiss-Prot Accession # Q9Y275) and containing an N-terminally linked histidine tag, etc.; hereinafter referred to as “hBAFF”), and Recombinant Mouse EphA2/Fc Chimera, CF (R&D systems, Inc.; a polypeptide consisting of amino acids from Ala at position 22 to Ala at position 535 in mouse EphA2 (NCBI Accession No. #AAA82113) and containing a C-terminally linked Fc region (from Pro at position 100 to Lys at position 330) of human immunoglobulin G1 (hereinafter, referred to as “hIgG1”); hereinafter, referred to as “mEphA2/Fc”) was added to a Maxisorp plate and solid-phase immobilized overnight at 4° C. […] After washing of the Maxisorp plate with TBST again, the amount of a phage bound with the protein solid-phase immobilized on the plate was detected as absorbance at a wavelength of 405 nm using ELISA POD.

[3] = molecular target: T3, Recombinant Human BAFF/BLyS/TNFSF13B (hBAFF) (Homo sapiens, UniProt Q9Y275); assay: Phage ELISA on solid-phase immobilized hBAFF; assay type: binding; conditions: phage-displayed peptide, absorbance at 405 nm
T3 construct: amino acids from Ala at position 134 to Leu at position 285 in human BAFF; histidine tag (N); purchased R&D systems, Inc
T3 sequence (Q9Y275 134-285): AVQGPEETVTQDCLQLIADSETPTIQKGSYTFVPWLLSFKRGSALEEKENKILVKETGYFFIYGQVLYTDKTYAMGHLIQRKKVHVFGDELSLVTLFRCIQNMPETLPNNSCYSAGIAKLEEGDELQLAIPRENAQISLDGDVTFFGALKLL
Description: as §1, with “prepare phages. […]” for “prepare phages.”

[4] = molecular target: T4, APRIL (Homo sapiens, UniProt O75888); conditions: compared with whole extracellular region (TACI_d1d2); cited from earlier work
T4 sequence (O75888 105-250): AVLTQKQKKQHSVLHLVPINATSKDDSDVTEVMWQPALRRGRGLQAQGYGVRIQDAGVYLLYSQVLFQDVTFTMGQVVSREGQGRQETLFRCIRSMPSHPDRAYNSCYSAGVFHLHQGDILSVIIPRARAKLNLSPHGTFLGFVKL

[5] = molecular target: BAFF (Homo sapiens, UniProt Q9Y275); conditions: compared with whole extracellular region (TACI_d1d2); cited from earlier work
BAFF, sequence (Q9Y275 134-285 limits assumed, species assumed): as the sequence (Q9Y275 134-285) above

Substance	binding to human EphA2 expressed on cell surface [1]	binding to human EphA2 expressed on cell surface ([1]; listed as α-EphA2 TACI_d2 #2)	cross reactivity to mEphA2 [2]	binding to human EphA2 expressed on cell surface ([1]; listed as α-EphA2 TACI_d2 #1)	binding to the endogenous ligand hBAFF [3]	binding activity against APRIL [4]	binding activity against BAFF [5]
SLSCRKEQGKMYLLKEWDCASCASACGNHPHYCAYFCEN (Amino acid sequence of human EphA2-binding peptide a-EphA2 #2) [α-EphA2 #2]	bound	specifically bound	cross reactivity to mEphA2 at a level equivalent to wild-type TACI_d2				
SLSCRKEQGKQYLLREWDCDSCASECGSHPHYCAYFCEN (Amino acid sequence of human EphA2-binding peptide a-EphA2 #1) [α-EphA2 #1]	bound		stronger cross reactivity	specifically bound			
SLSCRKEQGKHYLLKEYDCDSCASECGYHPDYCAYFCEN (Amino acid sequence of human EphA2-binding peptide a-EphA2 #3) [α-EphA2 #3]			cross reactivity to mEphA2 at a level equivalent to wild-type TACI_d2				
wild-type TACI_d2: wild-type C-terminal cysteine-rich domain of TACI, binds APRIL and BAFF					bind to the endogenous ligand hBAFF	equivalent to the binding activity of the whole extracellular region (TACI_d1d2)	equivalent to the binding activity of the whole extracellular region (TACI_d1d2)
